From the supplement of paper PMC12042874
± gives the uncertainty stated by the source.

Assay: amyloid nucleation score (Sup35N fusion, yeast selection) (log enrichment); library NNK3; higher = more nucleation; inactive = no reads after selection
In short: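 On medium lacking adenine and uracil, psi-negative yeast expressing peptides of 20 random codons fused to Sup35N were grown 7 days at 30°C after a 24-hour induction with 100 μM copper sulfate. Illumina sequencing of input and output plasmid inserts gave the reads, and sequences under 100 input reads were excluded. The nucleation score is the DiMSum log enrichment of output over input reads, centred on the mode score of non-aggregating sequences.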

Substance | amyloid nucleation score
LRNQITQIDDT | inactive
LRPKYTFYCRLD | 0.137 ± 0.28
LRTGCSYNSREGHNTLGRSS | inactive
LRVTKQVLSSMMFTITFGGD | inactive
LRWRHGCIR | inactive
LRYASTSSFLVFQRDTLANE | inactive
LSAFVQDVLNVIQMLTEREF | inactive
LSECLRHGSDDTRFEVVGQD | 1.34 ± 0.097
LSFIISCNYTINNNMWV | 2.91 ± 0.077
LSFSLWNLEYIEISRRNLTL | 1.2 ± 0.097
LSFVP | inactive
LSFYMVKGLKNKI | inactive
LSGELCSW | inactive
LSGENQLG | inactive
LSGMMFAGPFLTCSLDCWML | inactive
LSHSRSNL | inactive
LSILTFGSCTNKSH | inactive
LSIVLGEDLMRCTRSDSVWK | inactive
LSKLTSSQAGKG | inactive
LSLAS | inactive
LSLKRHLYLKVDASLTCVRT | inactive
LSLLSFNGIGHFLIVRKRYK | inactive
LSLSSFCF | 1.3 ± 0.17

Substance | amyloid nucleation score
LSNDF | inactive
LSNHSSLASRSYFTNCN | inactive
LSNMMVVPSTSERFFFRAMG | inactive
LSPCGL | inactive
LSPSVFVNSNRLMTESSRGF | inactive
LSSDGFYFNTEYL | inactive
LSSYMDYGMSKVYVLWRSTW | -0.117 ± 0.28
LSVLTL | inactive
LSVTRNACTEPFRGFLIGLY | inactive
LSYHTCSVMYALRMSALDCR | inactive
LTFGTCFGPYYGVYPNLFIM | inactive
LTGFIGICQLVSYFNEVALQ | inactive
LTGVLLMMVLYSRPHLTKAR | inactive
LTHGAVTVFYRFIMLSFILR | inactive
LTLSMKFTWYFYVSIYSGQG | inactive
LTMPWTAYCPFKCFLLRADS | inactive
LTNLCES | inactive
LTRVTMGYIAEIQWNFMSKN | 1.56 ± 0.066
LTSLVLVLLLCSTRNGNGTC | 1.55 ± 0.085
LTWLYDDDVSKFRTLLKFRS | inactive
LTWYREDLYVRSWSCYWDQR | inactive
LVAKRFISYHLIV | inactive
LVAWCDIPNCCANVYCNSVD | 1.85 ± 0.077

Substance | amyloid nucleation score
LVCFPGTSFAGVCDW | inactive
LVDCFKLCRELNGLILNVAA | 1.07 ± 0.12
LVEISTVERRALIFYRCIDL | -0.481 ± 1.4
LVFLN | inactive
LVFSRCWFSMTVEYISYSVD | inactive
LVLDCMIMGMIIDSWYWPLN | inactive
LVLQLGFKKSPLRVYRSSGN | inactive
LVLSWWYMMFFRFDGV | inactive
LVRCRVVWDLL | inactive
LVSMWMQASILLYCNGSNHW | 1.61 ± 0.11
LVVATRRLMYGHRKVYAWVD | inactive
LVVLLFVFI | inactive
LVVSVCKK | inactive
LVVWRIRWRDKGSL | inactive
LVYKLDVNCYDRNLLDSVEK | inactive
LVYTA | inactive
LVYTVNLWNALIFHLD | 0.527 ± 0.22
LWAWIIYGMWKGSFLCHVFS | inactive
LWEDFLMVKSVVMN | inactive
LWGYGL | inactive
LWHSYFSFYLCVTFENRVIN | 2.79 ± 0.052
LWLCSYNATGSFVAKD | -0.246 ± 0.5
LWLGWNRKWQFSWPAAGRFL | inactive

Substance | amyloid nucleation score
LWNFYSDCNGVPQDESLVEG | inactive
LWTELYVYPLNMTVMVAIF | inactive
LYCTWNSYNSVYAI | 0.66 ± 0.2
LYDISGPM | inactive
LYDSSTALATVSDHFVEWLS | inactive
LYDVGYKGQMVDGGTVCCER | -0.257 ± 0.8
LYESNVRCNRVVTSLFVSSQ | inactive
LYGLRHYILSEHFGGFVLVG | inactive
LYHFANIFSFC | inactive
LYILGQIFR | inactive
LYIPMQLQCCAIMEGYAILF | 1.6 ± 0.078
LYLKYLELEILRPYGAFICH | inactive
LYNGELNLMVRSNAEFMGSG | inactive
LYPFYFYA | inactive
LYREFVWMEVCVCRWG | inactive
LYRKWRE | inactive
LYSGVIAHCIVIPIELFSVS | inactive
LYSLVV | inactive
LYTNGIFYWQMGYLKVWQGI | inactive
LYVGEKLVHFLEARMD | inactive
LYVVVASMVGLDASRP | 0.266 ± 0.38
LYWFCCLVIYVGPLVHPVEL | inactive
LYWKEIPGMDYKMAV | inactive

Substance | amyloid nucleation score
MACRSNGLVGPEHTYVPT | inactive
MAVID | inactive
MCDCL | inactive
MCEGAIQQRILLSMKFCCKW | 0.037 ± 0.87
MCFTLIKLLIQWKREDQIDE | 1.07 ± 0.096
MCRTMLSPLMR | inactive
MCSIIRCRFNMFCLMYVNSV | 0.584 ± 0.13
MCVFNNGVGLPDVGVNLAYN | inactive
MCYLSSSDAGDVIPAWC | inactive
MDFCRRQIMLVVAFSCRLWL | inactive
MEINGALRYMH | inactive
MEYRHCSFNRSRTRTLYRMN | inactive
MEYSRVVAL | -0.421 ± 0.66
MFEYLWEENMSLIYSKVDCG | inactive
MFFAGKTPGHVHVWNSANTR | inactive
MFFWMCE | inactive
MFGRYSLLDILPLNMIRGNI | inactive
MFINECVSVYDQF | inactive
MFMRIRSLIE | inactive
MFMVAIGAYEGCSGRRHREV | -0.238 ± 0.64
MFVDSSISGIEIR | inactive
MFVSDKEYRCVTSSVTRVCT | inactive
MFVSLMKQFM | 0.931 ± 0.1

Substance | amyloid nucleation score
MGISLMFESERVSVYEHGNL | inactive
MGKTMILKLLY | inactive
MGMARWYAKWLGWVLSMYRW | inactive
MGRLKCTVKPVSYEMWKVYA | inactive
MHFLVQSCFTEPRWAACRNV | inactive
MHIFVLNLDLSRA | 2.61 ± 0.069
MHPCSL | inactive
MHSGFNRFSTYCRKVGGSYR | inactive
MICLLSSSCKRRCLMG | inactive
MIDDYRECSYIYF | inactive
MIFSTYNNLLWLKSLQSTGG | inactive
MILLHVVCSVFPVRGFVVLA | inactive
MILSESKYGFTFRLRVARQV | inactive
MILSNISGSRLIGSSNHSAF | inactive
MIQIIMLEGGLSCLRHLVIT | -0.362 ± 0.8
MIRLSDTRRWIVYFHQCLCG | -0.748 ± 1
MIRWTWNRKHTII | inactive
MISLMTYSYSRYMYIVSPVP | inactive
MISYELVNALEIISNLIFMW | inactive
MIVHWMVHSRLVHKAVVGDG | inactive
MIVSSYFYLVRIQYEFHAGW | 0.172 ± 0.43
MKCLEGMHFIIFLVLALCIY | inactive
MKLSMHVCAGAKLSGEGFRF | inactive

Substance | amyloid nucleation score
MKLSVLNVWNSRWGLQTA | inactive
MKVIRTYRGYGCQDWIELLF | inactive
MLFRLRSAYHTASDVDANDD | inactive
MLISERIFQYTCGNYS | 2.09 ± 0.085
MLITSMLCIHV | inactive
MLLFACQRLQLVALLGARML | inactive
MLMAPSYEYT | -0.209 ± 0.78
MLRDFFQ | inactive
MLRLKYLIELTRDFFGWFLF | inactive
MMPNELFDPVRKDRSFVRWV | inactive
MMVRWEVTV | -0.172 ± 1
MNDNLNNHVSDEIFSFVG | 0.813 ± 0.2
MNFVPTLRSIVVGRWRDLEV | inactive
MNLFFGFWLLLSAFVSHQVC | inactive
MNNVN | inactive
MNRDTYSMWSVKDKMTFI | -0.124 ± 0.75
MNRNLLFASTLTFNFVLFVW | inactive
MNYRFVISMLWVEVRGFGRQ | -0.892 ± 2.4
MPGAALLVVLFSGFVYREAM | inactive
MPNYNLSGLNWVRCG | inactive
MPYDFPVVHNIDFFG | inactive
MQLDYSSSVLNMFLDANILY | inactive
MQTNCFRMAVYFAQVRLS | inactive
